Results published in article PMC8567202, “Phosphoinositide-binding activity of Smad2 is essential for its function in TGF-β signaling” (The Journal of Biological Chemistry, 2021).

What was measured:
Assay type in all cases: cell-based
[1] = system: Smad2 transcriptional activity; experiment: Dual luciferase reporter assay for Smad2 transcriptional activity; details: Smad2-suppressed HeLa cells, luciferase, 10 ng/ml TGF-β for 48 h
Procedure: (§1) Two separate gels were used to accommodate all mutants. An empty vector transfection (vehicle) was used for a negative control for each gel. Glyceraldehyde 3-phosphate dehydrogenase (GAPDH) was used as a gel loading control. Data in A and B are quantified in Fig. S3A. C, TGF-β stimulated (10 ng/ml for 1 h) nuclear translocation of mouse EGFP-WT, -K420A, -W422A, -E425K, -Y426A, and -R427A/R428A transfected into HeLa cells whose endogenous Smad2 was suppressed by siRNA. For Smad2-WT, the effect of PI(4,5)P2 depletion was measured. Arrows indicate nuclear accumulation of EGFP-WT and EGFP-E425K. Scale bars indicate 10 μm. D, quantification of (C). (Inuc/Icyto) was calculated from total nuclear and cytosolic fluorescence intensity values. Blank and black bars indicate values before and after TGF-β stimulation. Error bars indicate S.D. values from >3 measurements (n = 10). E, Smad2 transcriptional activity measured by the luciferase assay. Blank and black bars indicate values before and after TGF-β stimulation. Error bars indicate S.D. values from >3 measurements (n = 10).
HeLa cells were plated on 6-well plates at the density of ∼1.5 × 10^5 and treated with siRNA as described above. The reporter gene containing three TGF-β/activin response element (ARE) coupled with the luciferase gene (pGL2 3ARE-Lux: Addgene) was used for enhanced activity ([55]). On translocation into the nucleus, receptor-activated Smad2 associates with the DNA-binding protein FAST1 to form a transcriptional complex on the ARE of the Mix.2 promoter. After 24 h, the cell media were replaced with fresh media and cells were cotransfected with 375 ng pGL2 3ARE-Lux experimental vector, 37.5 ng pGL4.73[hRluc/SV40] internal control vector (Promega), 337.5 ng FAST1, and 750 ng of pcDNA 3.1 plasmid harboring Smad2 WT or mutant using the jetPRIME transfection system (Polyplus transfection) according to the manufacturer's protocols. After 24 h of transfection, cells were placed in fresh media and stimulated with 10 ng/ml TGF-β for 48 h. Then the cells were washed with phosphate buffer saline, and the dual luciferase reporter assay was performed according to the manufacturer's protocols (Promega). All 3ARE-Luc activity values were normalized using the pGL4.73[hRluc/SV40] values as a reference.

HeLa cells [2] = experiment: Nuclear translocation of EGFP-Smad2; details: HeLa cells with endogenous Smad2 suppressed, 10 ng/ml TGF-β for 1 h
Procedure: as §1
The ratio of nuclear to cytoplasmic protein was calculated from the fluorescence intensity of nucleus (Inuc) and the cytoplasm (Fcyto) in cross-section images of cells using the line profile function of Image-Pro Plus software (Media Cybernetics). Briefly, at least five different lines were drawn across the cross-sectional image of each cell and the average Inuc and ICyto values were calculated along the lines. Typically, more than ten cell images were analyzed for each data set to determine the average and SD values.

HeLa cells [3] = experiment: Smad2 phosphorylation (pS465/pS467), Western blot; details: Smad2-depleted HeLa cells, 10 ng/ml TGF-β, 48 h
Procedure: as §1
HeLa cells were plated on 6-well or 48-well plates at the density of ∼1.5 × 10^5 or 1.25 × 10^4 for 24 h and 30 nM human Smad2 (or SARA) DsiRNAs (IDT: see sequences below) were transfected into cells using the jetPRIME system (Polyplus transfection) according to the manufacturer's protocols. After transfection with siRNA for 24 h, the medium was exchanged with a fresh one and cells were transfected again with 1 μg/ml of the mouse Smad2 expression vector. In total, 24 to 48 h after transfection, cells were used for further treatment or Western blot analysis. The sequences of DsiRNAs are as follows: SMAD2-siRNA1 (sense: 5′-[…]-3′; antisense: 5′-[…]-3′); SMAD2-siRNA2 (sense: 5′-[…]-3′; antisense: 5′-[…]-3′); SMAD2-siRNA3 (sense: 5′-[…]-3′; antisense: 5′-[…]-3′); SARA-siRNA1 (sense: 5′-[…]-3′; antisense: 5′-[…]-3′); SARA-siRNA2 (sense: 5′-[…]-3′; antisense: 5′-[…]-3′).
Transfected cells or treated cells were lysed in the cell lysis buffer (20 mM Tris-HCl, pH 7.5, containing 150 mM NaCl, 1 mM Na2EDTA, 1 mM EGTA, 1% Triton-X, protease inhibitors, and phosphatase inhibitors) (1 mM Na3VO4, 1 mM NaF, 1 μg/ml leupeptin, 1 mM phenylmethanesulfonylfluoride, 1.5 mM benzamidine, and 2 μg/ml pepstatin). The total protein concentration of the cell lysate was determined by the Pierce BCA protein assay kit (Thermo scientific). The same amounts of proteins were loaded onto a polyacrylamide gel to run sodium dodecyl sulfate–polyacrylamide gel electrophoresis. Proteins were separated and transferred to a polyvinylidene difluoride membrane. The membrane was blocked with 5% bovine serum albumin for 1 h and incubated overnight at 4 °C with various antibodies (1:1000 dilution for all antibodies). After the unbound antibodies were removed by washing with 0.1% Tris buffer saline with 0.1% Tween20, the membranes were incubated with the horseradish peroxidase secondary antibody (1:5000 dilution) for 1 h at room temperature. The membranes were washed three more times with 0.1% Tris buffer saline with 0.1% Tween20 to remove the unbound horseradish peroxidase secondary antibody before imaging. The chemiluminescence intensity of protein bands in the gel was analyzed and documented by the Azure 500Q Imaging System.

| Molecule | Smad2 transcriptional activity after TGF-β stimulation [1] | nuclear transport after TGF-β stimulation (HeLa cells [2]) | Smad2 phosphorylation after TGF-β stimulation (HeLa cells [3]) |
| --- | --- | --- | --- |
| Smad2-W422A: W422A mutant of full-length Smad2; specific PI(4,5)P2 binding-compromised (protein, left off: His6, N-terminal, state not stated) MSSILPFTPPVVKRLLGWKKSAGGSGGAGGGEQNGQEEKWCEKAVKSLVKKLKKTGRLDELEKAITTQNCNTKCVTIPSTCSEIWGLSTANTVDQWDTTGLYSFSEQTRSLDGRLQVSHRKGLPHVIYCRLWRWPDLHSHHELKAIENCEYAFNLKKDEVCVNPYHYQRVETPVLPPVLVPRHTEILTELPPLDDYTHSIPENTNFPAGIEPQSNYIPETPPPGYISEDGETSDQQLNQSMDTGSPAELSPTTLSPVNHSLDLQPVTYSEPAFWCSIAYYELNQRVGETFHASQPSLTVDGFTDPSNSERFCLGLLSNVNRNATVEMTRRHIGRGVRLYYIGGEVFAECLSDSAIFVQSPNCNQRYGWHPATVCKIPPGCNLKIFNNQEFAALLAQSVNQGFEAVYQLTRMCTIRMSFVKGAGAEYRRQTVTSTPCWIELHLNGPLQWLDKVLTQMGSPSVRCSSMS | much reduced activity even after TGF-β stimulation | did not show nuclear transport | minimally phosphorylated |
| Smad2-Y426A: Y426A mutant of full-length Smad2; specific PI(4,5)P2 binding-compromised (protein, left off: His6, N-terminal, state not stated) MSSILPFTPPVVKRLLGWKKSAGGSGGAGGGEQNGQEEKWCEKAVKSLVKKLKKTGRLDELEKAITTQNCNTKCVTIPSTCSEIWGLSTANTVDQWDTTGLYSFSEQTRSLDGRLQVSHRKGLPHVIYCRLWRWPDLHSHHELKAIENCEYAFNLKKDEVCVNPYHYQRVETPVLPPVLVPRHTEILTELPPLDDYTHSIPENTNFPAGIEPQSNYIPETPPPGYISEDGETSDQQLNQSMDTGSPAELSPTTLSPVNHSLDLQPVTYSEPAFWCSIAYYELNQRVGETFHASQPSLTVDGFTDPSNSERFCLGLLSNVNRNATVEMTRRHIGRGVRLYYIGGEVFAECLSDSAIFVQSPNCNQRYGWHPATVCKIPPGCNLKIFNNQEFAALLAQSVNQGFEAVYQLTRMCTIRMSFVKGWGAEARRQTVTSTPCWIELHLNGPLQWLDKVLTQMGSPSVRCSSMS | much reduced activity even after TGF-β stimulation | did not show nuclear transport | minimally phosphorylated |
| Smad2-K420A: K420A mutant of full-length Smad2; predominantly TβRI binding-compromised (protein, left off: His6, N-terminal, state not stated) MSSILPFTPPVVKRLLGWKKSAGGSGGAGGGEQNGQEEKWCEKAVKSLVKKLKKTGRLDELEKAITTQNCNTKCVTIPSTCSEIWGLSTANTVDQWDTTGLYSFSEQTRSLDGRLQVSHRKGLPHVIYCRLWRWPDLHSHHELKAIENCEYAFNLKKDEVCVNPYHYQRVETPVLPPVLVPRHTEILTELPPLDDYTHSIPENTNFPAGIEPQSNYIPETPPPGYISEDGETSDQQLNQSMDTGSPAELSPTTLSPVNHSLDLQPVTYSEPAFWCSIAYYELNQRVGETFHASQPSLTVDGFTDPSNSERFCLGLLSNVNRNATVEMTRRHIGRGVRLYYIGGEVFAECLSDSAIFVQSPNCNQRYGWHPATVCKIPPGCNLKIFNNQEFAALLAQSVNQGFEAVYQLTRMCTIRMSFVAGWGAEYRRQTVTSTPCWIELHLNGPLQWLDKVLTQMGSPSVRCSSMS | much reduced activity even after TGF-β stimulation | did not show nuclear transport | little phosphorylation after TGF-β stimulation |
| Smad2- R427A/R428A: double mutant of full-length Smad2; PI(4,5)P2 and TβRI binding-compromised (protein, left off: His6, N-terminal, state not stated) MSSILPFTPPVVKRLLGWKKSAGGSGGAGGGEQNGQEEKWCEKAVKSLVKKLKKTGRLDELEKAITTQNCNTKCVTIPSTCSEIWGLSTANTVDQWDTTGLYSFSEQTRSLDGRLQVSHRKGLPHVIYCRLWRWPDLHSHHELKAIENCEYAFNLKKDEVCVNPYHYQRVETPVLPPVLVPRHTEILTELPPLDDYTHSIPENTNFPAGIEPQSNYIPETPPPGYISEDGETSDQQLNQSMDTGSPAELSPTTLSPVNHSLDLQPVTYSEPAFWCSIAYYELNQRVGETFHASQPSLTVDGFTDPSNSERFCLGLLSNVNRNATVEMTRRHIGRGVRLYYIGGEVFAECLSDSAIFVQSPNCNQRYGWHPATVCKIPPGCNLKIFNNQEFAALLAQSVNQGFEAVYQLTRMCTIRMSFVKGWGAEYAAQTVTSTPCWIELHLNGPLQWLDKVLTQMGSPSVRCSSMS | much reduced activity even after TGF-β stimulation | did not show nuclear transport | minimally phosphorylated |
| EGFP-Smad2 WT: mouse EGFP-Smad2 wild type transfected into HeLa cells (protein, UniProt Q62432 2-467, looked up, EGFP fusion, mouse EGFP-Smad2 wild type transfected into HeLa cells) Mothers against …: SSILPFTPPVVKRLLGWKKSAGGSGGAGGGEQNGQEEKWCEKAVKSLVKKLKKTGRLDELEKAITTQNCNTKCVTIPSTCSEIWGLSTANTVDQWDTTGLYSFSEQTRSLDGRLQVSHRKGLPHVIYCRLWRWPDLHSHHELKAIENCEYAFNLKKDEVCVNPYHYQRVETPVLPPVLVPRHTEILTELPPLDDYTHSIPENTNFPAGIEPQSNYIPETPPPGYISEDGETSDQQLNQSMDTGSPAELSPTTLSPVNHSLDLQPVTYSEPAFWCSIAYYELNQRVGETFHASQPSLTVDGFTDPSNSERFCLGLLSNVNRNATVEMTRRHIGRGVRLYYIGGEVFAECLSDSAIFVQSPNCNQRYGWHPATVCKIPPGCNLKIFNNQEFAALLAQSVNQGFEAVYQLTRMCTIRMSFVKGWGAEYRRQTVTSTPCWIELHLNGPLQWLDKVLTQMGSPSVRCSSMS |  | moved from the cytoplasm to the nucleus | fully restored after TGF-β stimulation |
